Source: patent US20180311371A1 (Hoffmann-La Roche, published 2018)

Columns and labels:
[1] = target: T1, human TPBG (trophoblast glycoprotein), full length, cell surface expressed (human, UniProt Q13641 32-420); assay: cell-based or functional assay
T1 sequence: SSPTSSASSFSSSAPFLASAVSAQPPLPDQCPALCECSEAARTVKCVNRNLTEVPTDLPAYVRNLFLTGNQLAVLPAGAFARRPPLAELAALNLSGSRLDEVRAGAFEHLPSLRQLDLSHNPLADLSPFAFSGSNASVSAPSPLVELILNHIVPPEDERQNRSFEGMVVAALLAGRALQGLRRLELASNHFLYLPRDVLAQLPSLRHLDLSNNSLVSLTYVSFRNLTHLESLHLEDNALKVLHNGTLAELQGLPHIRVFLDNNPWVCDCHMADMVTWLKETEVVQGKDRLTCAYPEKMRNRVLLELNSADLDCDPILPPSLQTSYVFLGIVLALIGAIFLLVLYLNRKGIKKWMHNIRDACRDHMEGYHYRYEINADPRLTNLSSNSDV

[2] = target: T2, huTPBG (recombinant human TPBG immobilised on the Biacore chip) (human, UniProt Q13641 32-355, limits assumed); assay: SPR Biacore T200; huTPBG amine-coupled, Fab injected
T2 construct: also called human TPBG antigen
T2 sequence: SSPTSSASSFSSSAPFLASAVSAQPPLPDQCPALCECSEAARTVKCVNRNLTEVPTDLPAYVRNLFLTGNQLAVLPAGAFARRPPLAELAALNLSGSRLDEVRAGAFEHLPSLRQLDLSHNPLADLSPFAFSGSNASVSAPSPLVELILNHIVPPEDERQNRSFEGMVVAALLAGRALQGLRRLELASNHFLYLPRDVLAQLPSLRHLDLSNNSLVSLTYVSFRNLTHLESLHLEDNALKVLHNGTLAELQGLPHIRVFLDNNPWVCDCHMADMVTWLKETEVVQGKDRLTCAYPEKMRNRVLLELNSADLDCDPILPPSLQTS

[3] = target: T3, minipig TPBG extracellular domain, His6Avi, biotinylated (minipig, biotinylated); assay: ELISA; biotinylated TPBG-AviHis on streptavidin plate; Fab titrated from 2 µg/ml
T3 construct: also called mpTPBG; minipig TPBG-AviHis
T3 chain: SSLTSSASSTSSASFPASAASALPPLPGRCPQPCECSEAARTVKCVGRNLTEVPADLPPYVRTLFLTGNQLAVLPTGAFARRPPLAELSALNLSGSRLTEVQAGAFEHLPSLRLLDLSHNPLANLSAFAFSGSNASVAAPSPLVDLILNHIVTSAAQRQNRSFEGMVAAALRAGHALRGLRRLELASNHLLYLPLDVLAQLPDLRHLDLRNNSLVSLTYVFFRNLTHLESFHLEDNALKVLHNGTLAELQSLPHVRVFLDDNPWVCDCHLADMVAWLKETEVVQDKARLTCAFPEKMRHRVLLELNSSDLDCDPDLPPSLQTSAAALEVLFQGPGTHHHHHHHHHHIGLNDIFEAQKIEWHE

[4] = target: T4, human TPBG extracellular domain, His6Avi, biotinylated (human, biotinylated); assay: as above
T4 construct: also called huTPBG; human TPBG-AviHis
T4 chain: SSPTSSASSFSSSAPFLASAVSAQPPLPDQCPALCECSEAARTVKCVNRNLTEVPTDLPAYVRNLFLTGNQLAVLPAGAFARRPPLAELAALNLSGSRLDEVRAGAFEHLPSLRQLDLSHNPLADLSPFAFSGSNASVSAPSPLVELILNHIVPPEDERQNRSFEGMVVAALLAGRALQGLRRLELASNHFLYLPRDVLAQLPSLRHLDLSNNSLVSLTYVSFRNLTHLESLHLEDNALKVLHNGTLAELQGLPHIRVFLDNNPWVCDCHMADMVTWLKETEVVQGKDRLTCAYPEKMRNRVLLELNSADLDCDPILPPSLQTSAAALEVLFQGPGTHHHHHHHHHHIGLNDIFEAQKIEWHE

[5] = target: T1, human TPBG (trophoblast glycoprotein), …; assay: cell ELISA on MCF7 cells; titrated from 5 µg/ml
[6] = target: T1, human TPBG (trophoblast glycoprotein), …; assay: flow cytometry on SW620 clone 4 cells; ratio of MFI; replicate 1
[7] = target: T1, human TPBG (trophoblast glycoprotein), …; assay: flow cytometry on SW620 clone 4 cells; ratio of MFI; replicate 2
[8] = target: T5, minipig TPBG, full length, cell surface expressed on CHO-K1 cells (minipig); assay: cell-based or functional assay
T5 chain: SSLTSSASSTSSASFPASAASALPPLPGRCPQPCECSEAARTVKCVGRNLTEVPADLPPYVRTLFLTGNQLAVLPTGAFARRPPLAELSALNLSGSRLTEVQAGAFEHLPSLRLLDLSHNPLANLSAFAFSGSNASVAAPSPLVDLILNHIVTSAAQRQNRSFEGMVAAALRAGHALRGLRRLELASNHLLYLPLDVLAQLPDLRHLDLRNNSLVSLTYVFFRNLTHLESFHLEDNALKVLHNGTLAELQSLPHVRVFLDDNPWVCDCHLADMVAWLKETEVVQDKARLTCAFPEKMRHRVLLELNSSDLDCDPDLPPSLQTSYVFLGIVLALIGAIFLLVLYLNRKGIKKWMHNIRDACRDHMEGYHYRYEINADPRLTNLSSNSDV

[9] = target: T1, human TPBG (trophoblast glycoprotein), …; assay: cell-based or functional assay; remark: listed apart in the source
[10] = target: T1, human TPBG (trophoblast glycoprotein), …; assay: cell-based or functional assay; remark: listed apart in the source
[11] = target: T1, human TPBG (trophoblast glycoprotein), …; assay: cell-based or functional assay; remark: listed apart in the source
[12] = target: T6, recombinant extracellular domain of minipig TPBG (Biacore analyte) (minipig); assay: SPR Biacore T200; Fab captured by anti-huFab, minipig TPBG injected
T6 chain: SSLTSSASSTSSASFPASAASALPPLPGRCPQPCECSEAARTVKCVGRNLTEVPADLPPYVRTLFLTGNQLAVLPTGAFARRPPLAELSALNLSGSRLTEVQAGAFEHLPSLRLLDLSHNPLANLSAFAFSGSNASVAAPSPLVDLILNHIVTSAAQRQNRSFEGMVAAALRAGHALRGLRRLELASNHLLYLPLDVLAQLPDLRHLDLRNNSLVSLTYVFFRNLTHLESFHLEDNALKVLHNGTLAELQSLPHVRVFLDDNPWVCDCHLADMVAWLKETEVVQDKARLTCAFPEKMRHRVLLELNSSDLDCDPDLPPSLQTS

[13] = target: T7, human TPBG extracellular domain, huIgG1-Fc-His6 (human); assay: ELISA; Fc-TPBG coated; mAb titrated from 1 µg/ml
T7 construct: also called Fc-TPBG (hu)

[14] = target: T8, minipig TPBG extracellular domain, huIgG1-Fc-His (minipig); assay: ELISA; Fc-TPBG coated; mAb titrated from 1 µg/ml
T8 construct: also called Fc-TPBG (mp)

B1: anti-TPBG antibody 051, Fab fragment (Fab, V domains shown)
VH: EVQLLESGGGLLQPGGSLRLSCAASGFTFSIYWMTWVRQAPGKGLEWVSAISGSGGSTYYADSVKGRFTISRDNSKNTLYLQMNSLRAEDTAVYYCAKDYYSNVYWGQGTLVTVSS
VL: DIQMTQSPSSVSASVGDRVTITCRASQGIYSWLAWYQQKPGKAPKLLIYAASSLQSGVPSRFSGSGSGTDFTLTISSLQPEDFATYYCQQSDSPPYTFGQGTKLEIK
notes: also called Fab3
[1]
  EC50 cytotoxicity, Fab-PE sandwich construct, MCF7: 1.35 nM
  X-fold higher potency compared to TPBG(H8)PE, MCF7: 1.1 fold
[2]
  Kd: 0.16 nM
  koff: 7.83e-05 s⁻¹
  kon: 489000 M⁻¹ s⁻¹
[3]
  EC50: 0.175 µg/mL
[4]
  EC50: 0.0181 µg/mL
[5]
  EC50: 0.0575 µg/mL
[6]
  Fold change pH 7.2 vs pH 5.5: 1.1 fold
[7]
  Fold change pH 7.2 vs pH 5.5: 1.1 fold
[8]
  EC50 cytotoxicity, Fab + anti-kappa-Fab-PE, CHO-K1/minipig TPBG, replicate 1: 6.18 nM
  EC50 cytotoxicity, Fab + anti-kappa-Fab-PE, CHO-K1/minipig TPBG, replicate 2: 5.04 nM
[9]
  EC50 cytotoxicity, Fab + anti-kappa-Fab-PE, CHO-K1/human TPBG, replicate 1: 0.28 nM
  EC50 cytotoxicity, Fab + anti-kappa-Fab-PE, CHO-K1/human TPBG, replicate 2: 0.38 nM
[10]
  EC50 cytotoxicity, Fab-PE sandwich construct, H1975, replicate 1: 0.522 nM
  EC50 cytotoxicity, Fab-PE sandwich construct, H1975, replicate 2: 0.397 nM
  EC50 cytotoxicity, Fab-PE sandwich construct, H1975, replicate 3: 0.527 nM
[11]
  internalization after 0.5 h, MCF7 cells: 31%
  internalization after 1.0 h, MCF7 cells: 55%
  internalization after 2.0 h, MCF7 cells: 72%
[12]
  Kd: 2.05 nM
  koff: 0.000193 s⁻¹
  kon: 94000 M⁻¹ s⁻¹

B2: anti-TPBG antibody 051 (mAb) (antibody, V domains shown)
VH: EVQLLESGGGLLQPGGSLRLSCAASGFTFSIYWMTWVRQAPGKGLEWVSAISGSGGSTYYADSVKGRFTISRDNSKNTLYLQMNSLRAEDTAVYYCAKDYYSNVYWGQGTLVTVSS
VL: DIQMTQSPSSVSASVGDRVTITCRASQGIYSWLAWYQQKPGKAPKLLIYAASSLQSGVPSRFSGSGSGTDFTLTISSLQPEDFATYYCQQSDSPPYTFGQGTKLEIK
[13]
  binding result: binds
[14]
  binding result: binds
